In PMC4310633 (Biochemistry, 2014):

Target: the molecule itself
Assay: AUC

Protein	stoichiometry N
ligand binding domain (LBD) of the GluN1 subunit of the NMDA receptor (domain or fragment) not shown	2
ligand binding domain (LBD) of the GluN2A subunit of the NMDA receptor (domain or fragment) not shown	2
